Series [1] deals with NFS-60 cells. Kind of series: Antibody neutralization of M-CSF dimers by 5H410 Mab in the NFS-60 bioassay. The settings on record: serial dilution neutralization experiments. In kind it is cell-based. On the procedure: Fractionated products were analyzed on reducing SDS-PAGE and stained with Coomassie, according to the method of Laemmli, Nature […] 227:680-685 (1970). Biological activity was determined using the M-CSF dependent NFS-60 bioassay (See Example 10 below). Antibody neutralization experiments were carried out by pre-incubating approximately 5,000 units of M-CSF dimer with varying dilutions of the neutralizing M-CSF 5H410 Mab (made to refolded E. coli CΔ 150 M-CSFα dimer) prior to bioassay. (Halenbeck et al, Bio/Technology 7:710 (1989)
The biological activity of all three dimer species was neutralized to the same extent in serial dilution neutralization experiments using the 5H410 M-CSF Mab in the NFS-60 bioassay.

The test system of series [2] is cell surface M-CSF receptor (NFS60 cell M-CSF receptors). Briefly: NFS-60 receptor competition assay: displacement of 125I-M-CSF by radioligand displacement. In kind it is binding. On the procedure:
FIG. 7 illustrates the competitive binding of M-CSF and M-CSF muteins to NFS60 cell M-CSF receptors.
The plates were incubated at 4° C. for 20 hours and the cells were collected on glass-fiber filters. Maximum binding was measured in the absence of unlabeled M-CSF and non-specific binding was measured in the presence of 1000-fold greater concentration of unlabeled M-CSF (compared to labeled M-CSF). […] Results are expressed as percent displacement of radioactive M-CSF versus mutein concentration (FIG. 7).
Background: In a radioligand displacement assay an active substance lowers the binding of a labelled ligand.

For series [3], the system named is NFS-60 cells. Briefly: M-CSF dependent NFS-60 bioassay (MTT read-out). The class given is cell-based. On the procedure: Fractionated products were analyzed on reducing SDS-PAGE and stained with Coomassie, according to the method of Laemmli, Nature […] 227:680-685 (1970). Biological activity was determined using the M-CSF dependent NFS-60 bioassay (See Example 10 below). […] (Halenbeck et al, Bio/Technology 7:710 (1989)
The purified mutein dimers were subjected to bioassay using NFS-60 cells which is an M-CSF dependent cell line which forms colonies in the presence of active M-CSF. Standards and purified mutein samples were serially diluted 1:2 in RPMI media (10% fetal bovine serum) in a 50 microliter volume in 96-well microtiter plates. […] Plates were incubated at 37° C., 5% CO2 for 44 h. 5 mg/ml MTT dye was added to each sample and incubation continued for 4 h. 20% SDS was added to each sample. The plates were wrapped in foil and left overnight. The absorbance of each sample was read at 570 nm and compared to a standard of known M-CSF concentration.

From US6025146A, “Identification of M-CSF agonists and antagonists” (Chiron Corporation, priority 1995, dated 2000) come the findings set out here.

B1: Chinese hamster ovary cell (CHO)-expressed M-CSF: "naturally refolded" M-CSF expressed in Chinese hamster ovary cells (protein, UniProt P09603 33-554, looked up)
Macrophage colony-stimulating …: EEVSEYCSHMIGSGHLQSLQRLIDSQMETSCQITFEFVDQEQLKDPVCYLKKAFLLVQDIMEDTMRFRDNTPNAIAIVQLQELSLRLKSCFTKDYEEHDKACVRTFYETPLQLLEKVKNVFNETKNLLDKDWNIFSKNCNNSFAECSSQDVVTKPDCNCLYPKAIPSSDPASVSPHQPLAPSMAPVAGLTWEDSEGTEGSSLLPGEQPLHTVDPGSAKQRPPRSTCQSFEPPETPVVKDSTIGGSPQPRPSVGAFNPGMEDILDSAMGTNWVPEEASGEASEIPVPQGTELSPSRPGGGSMQTEPARPSNFLSASSPLPASAKGQQPADVTGTALPRVGPVRPTGQDWNHTPQKTDHPSALLRDPPEPGSPRISSLRPQGLSNPSTLSAQPQLSRSHSSGSVLPLGELEGRRSTRDRRSPAEPEGGPASEGAARPLPRFNSVPLTDTGHERQSEGSFSPQLQESVFHLLVPSVILVLLAVGGLLFYRWRRRSHQEPQRADSPLEQPEGSPLTQDDRQVELPV
In the case of B1, the “neutralization of biological activity by 5H410 M-CSF Mab” value in the series on NFS-60 cells [1] was “neutralizes”.

B2: Q20A, V78K: double mutant of M-CSF altering solvent accessible residues in the central portion of helices A and C (protein, UniProt P09603 33-554, looked up, variant Q20A V78K)
Macrophage colony-stimulating …: EEVSEYCSHMIGSGHLQSLARLIDSQMETSCQITFEFVDQEQLKDPVCYLKKAFLLVQDIMEDTMRFRDNTPNAIAIKQLQELSLRLKSCFTKDYEEHDKACVRTFYETPLQLLEKVKNVFNETKNLLDKDWNIFSKNCNNSFAECSSQDVVTKPDCNCLYPKAIPSSDPASVSPHQPLAPSMAPVAGLTWEDSEGTEGSSLLPGEQPLHTVDPGSAKQRPPRSTCQSFEPPETPVVKDSTIGGSPQPRPSVGAFNPGMEDILDSAMGTNWVPEEASGEASEIPVPQGTELSPSRPGGGSMQTEPARPSNFLSASSPLPASAKGQQPADVTGTALPRVGPVRPTGQDWNHTPQKTDHPSALLRDPPEPGSPRISSLRPQGLSNPSTLSAQPQLSRSHSSGSVLPLGELEGRRSTRDRRSPAEPEGGPASEGAARPLPRFNSVPLTDTGHERQSEGSFSPQLQESVFHLLVPSVILVLLAVGGLLFYRWRRRSHQEPQRADSPLEQPEGSPLTQDDRQVELPV
As to B2, in series [2], the “M-CSF receptor-binding ability (in words)” value is “decreased”. For the same molecule, the “fold increase in IC50 / decrease in binding affinity compared to M-CSFα NΔ3CΔ158” value in series [2] (relative to IC50 of about 17 pM for 158) is listed as 5 fold. Also, the specific activity in the series on NFS-60 cells [3] (purified refolded dimers, compared to a standard of known M-CSF concentration) is 1.4×10^7 U/mg. Besides, in the series with NFS-60 cells [3] (relative to parental reference (homodimer or heterodimer)), the “fold reduction in biological (specific) activity compared to parental M-CSF” value is 8-10 fold.
